Data from article PMC5740117, “Functional characterization and discovery of modulators of SbMATE, the agronomically important aluminium tolerance transporter from Sorghum bicolor” (Scientific Reports, 2017).

T1: SbMATE (Sorghum bicolor, UniProt A7XZS5)
T1 sequence (A7XZS5 1-600): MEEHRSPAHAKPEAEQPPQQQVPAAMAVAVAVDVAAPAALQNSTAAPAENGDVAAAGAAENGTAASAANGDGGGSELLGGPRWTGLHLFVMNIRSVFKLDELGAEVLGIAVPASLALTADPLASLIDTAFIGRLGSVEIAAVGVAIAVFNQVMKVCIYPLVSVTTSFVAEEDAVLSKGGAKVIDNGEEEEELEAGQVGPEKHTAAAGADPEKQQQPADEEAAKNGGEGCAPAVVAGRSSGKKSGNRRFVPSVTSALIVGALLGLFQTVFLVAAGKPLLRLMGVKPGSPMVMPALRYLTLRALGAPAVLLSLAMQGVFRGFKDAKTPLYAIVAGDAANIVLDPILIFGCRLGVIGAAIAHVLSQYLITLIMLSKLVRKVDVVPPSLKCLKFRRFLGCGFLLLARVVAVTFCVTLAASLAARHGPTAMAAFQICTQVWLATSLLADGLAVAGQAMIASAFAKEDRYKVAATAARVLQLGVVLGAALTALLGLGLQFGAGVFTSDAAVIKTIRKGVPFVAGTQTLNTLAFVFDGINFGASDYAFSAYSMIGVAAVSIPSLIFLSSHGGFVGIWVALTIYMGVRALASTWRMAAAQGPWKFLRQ

T2: SbMATE (Sorghum bicolor MATE transporter), detergent-purified (Sorghum bicolor, bDDM detergent-solubilised from Pichia pastoris; N-terminal FLAG and C-terminal His10 tags left out; covalently immobilised by EDC-NHS chemistry for SPR)
T2 chain: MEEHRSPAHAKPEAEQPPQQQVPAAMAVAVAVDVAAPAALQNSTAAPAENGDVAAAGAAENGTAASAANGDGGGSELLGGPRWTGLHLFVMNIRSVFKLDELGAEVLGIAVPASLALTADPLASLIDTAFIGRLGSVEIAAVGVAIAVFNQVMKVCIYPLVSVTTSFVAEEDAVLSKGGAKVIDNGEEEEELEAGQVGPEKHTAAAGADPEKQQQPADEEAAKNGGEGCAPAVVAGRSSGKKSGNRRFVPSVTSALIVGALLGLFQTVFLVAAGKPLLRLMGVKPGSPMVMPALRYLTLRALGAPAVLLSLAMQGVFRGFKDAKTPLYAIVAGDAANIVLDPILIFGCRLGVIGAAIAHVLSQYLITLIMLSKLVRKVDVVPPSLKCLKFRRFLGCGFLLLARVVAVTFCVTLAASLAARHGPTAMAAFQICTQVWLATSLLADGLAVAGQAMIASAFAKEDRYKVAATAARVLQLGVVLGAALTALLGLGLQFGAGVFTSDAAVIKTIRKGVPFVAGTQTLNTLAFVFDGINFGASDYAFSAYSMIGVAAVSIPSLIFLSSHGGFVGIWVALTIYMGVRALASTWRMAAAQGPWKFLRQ


Legend:
[1] = molecular target: T1, SbMATE; experiment: surface plasmon resonance, immobilized detergent-purified protein; type: binding; set-up: full-length; N-terminal FLAG and C-terminal His10 (or 3C-cleavable C-terminal His8) in Pichia pastoris KM71H, bDDM-purified for SPR; Xenopus oocytes from cRNA for citrate efflux; settings: 50 mM HEPES pH 8.0, 150 mM NaCl, 0.03% bDDM
[2] = molecular target: T1, SbMATE; experiment: ethidium uptake into Pichia pastoris cells, flow cytometry of DNA-bound ethidium; type: cell-based; set-up: full-length; N-terminal FLAG and C-terminal His10 (or 3C-cleavable C-terminal His8) in Pichia pastoris KM71H; settings: pH 8.5, 25 mM Tris-Cl, 137 mM NaCl, 2.7 mM KCl, outward proton gradient, 20 min, room temperature; read-out: half-maximal transport rate
[3] = molecular target: T2, SbMATE (Sorghum bicolor MATE …); experiment: SPR; BiOptix 404Pi, CMD sensorchip; detergent-purified SbMATE covalently immobilised (EDC-NHS, 5,000 RU); purified Nbs injected at various concentrations; running buffer 50 mM HEPES pH 8.0, 150 mM NaCl, 0.03% bDDM; double-referenced against a blank surface and buffer injections; regeneration 50 mM glycine pH 2.1; settings: both partners purified
[4] = molecular target: T2, SbMATE (Sorghum bicolor MATE …); experiment: SPR; as the other SPR (SbMATE covalently immobilised on CMD chip; 50 mM HEPES pH 8.0, 150 mM NaCl, 0.03% bDDM; Nbs injected at various concentrations) but a BSA-immobilised surface was the reference channel instead of a blank surface; n = 3; settings: both partners purified

Molecule	Kd [3]	further results
ethidium bromide	–	Kd [1]: 47.1 ± 15.6 µM; Km [2]: 130 ± 17.8 µM
Nb 83 (VHH, Selected by mRNA/cDNA display from a naive camelid single-domain library (Creative Biolabs); also called nanobody 83; source: E. coli BL21 (DE3) Star, purified (Ni-NTA, SEC)) VHH: EVQLVESGGGSVQAGGSLRLSCAVSGYTYCSYDMSWYRQAPGKEREFVSGIDSDGSTSYADSVKGRFTISQDNAKNTLYLQMNSLKPEDTAMYYCAVDSVWRLCSLDPADFGYWGQGTQVTVSS	3.3 µM	–
Nb 94 (VHH, Selected by mRNA/cDNA display from a naive camelid single-domain library (Creative Biolabs); also called nanobody 94; source: E. coli BL21 (DE3) Star, purified (Ni-NTA, SEC)) VHH: EVQLVESGGGLVQPGGSLRLSCAASGFTFSTYSMSWVRLAPGKALEWVSVINSGGDATYYADSVKGRFTISRDNAKNMLYLQMNSLKPVDTAMYYCVTGLYMSTGPVVAVPFGYWGQGTQVTVSS	–	Kd [4]: 0.0995 µM
Nb 80 (VHH, Selected by mRNA/cDNA display from a naive camelid single-domain library (Creative Biolabs); also called nanobody 80; source: E. coli, purified (Ni-NTA, SEC)) VHH: QVQLVESGGGSVQAGGSLRLSCTYSVYTYSSDSMAWFRQAPGKEREGVAGIYIGSGSTLYADSAKGRLTISQDKAKNTVYLQMNSLKPEDTALYYCAAGGNWYDGVLNVERAFAYWGQGTQVTVSS	12.2 µM	–
Nb 86 (VHH, Selected by mRNA/cDNA display from a naive camelid single-domain library (Creative Biolabs); also called nanobody 86; source: E. coli Shuffle T7, purified (Ni-NTA, SEC)) VHH: HVQLVESGGGSVQAGGSLRLTCAASGFTFSNYYMSWVRQAPGKGLEWVSSIYSVGSNGYYADSVKGRSTISRDNAKNTLYLQMNSLKPEDTAVYYCAAEPGGSWWDAYSYWGQGTQVTVSS	–	Kd [4]: 0.174 µM
Nb 81 (VHH, Selected by mRNA/cDNA display from a naive camelid single-domain library (Creative Biolabs); also called nanobody 81; source: E. coli, purified (Ni-NTA, SEC)) VHH: HVQLVESGGGSVQAGGSLRLSCAASGYSYCSYDMSWYRQAPGKEREFVATIDSYGDTSYADSVKGRFTISQDNAKNTLYLQMNSLKPEDTAMYYCATTPYGGWRYFGYWGQGTQVTVSS	23.9 µM	–
Nb 93 (VHH, Selected by mRNA/cDNA display from a naive camelid single-domain library (Creative Biolabs); also called nanobody 93; source: E. coli, purified (Ni-NTA, SEC)) VHH: HVQLVESGGGLVQAGGFLRLSCTASGFTFDNLALAWFRQAPGKEREGVSCISWSGTRTYYADSVQGRFAISRDNAKNTLYLQMASLKPEDTAMYYCAAESSWVKTCPGDTTDWGSTYWGQGTQVTVSS	26.1 µM	–
